According to patent publication US20040009939A1, “Methods of enhancing immune induction involving MDA-7” (Board of Regent, The University of Texas System, priority 2002, published 2004):
“Also recorded” adds a separate entry of the source.

Tests used:
[1] = test system: bFGF-induced angiogenesis; assay: In vivo angiogenesis Matrigel assay; design: species or system athymic nude mice
Experimental: To determine the anti-angiogenic activity of sMDA-7, an in vivo angiogenesis assay was performed. Briefly, sMDA-7 and bFGF were mixed with 500 μl of matrigel (Beckton and Dickenson) on ice and injected subcutaneously into athymic nude mice. Animals receiving matrigel containing only bFGF (60 ng) served as a positive control while animals receiving matrigel containing no growth factor served as a negative control. Each group consisted of 5 animals. Experiments were terminated on day 10 and the matrigel was harvested, photographed and subjected to hemoglobin analysis as described previously (Caudel et al., 2002).

[2] = test system: HUVEC; assay: IP-10 and IFN-γ production by ELISA; assay type: cell-based, human; conditions: sMDA-7 treated HUVEC supernatant
Experimental: HUVEC was seeded in six-well plates (1×10^5/well) and treated with sMDA-7 (10 ng/ml). Cell culture supernatant was collected at 6 h, 24 h, and 48 h after treatment, centrifuged at 1200 rpm, and analyzed for IP-10 and IFN-γ protein production using commercially available ELISA kits. Assays were performed as recommended by the manufacturer (R&D Systems, Minneapolis, Minn.). Cells treated with recombinant IFN-γ served as positive controls for IP-10 while cells treated with Ad-mda7 (3000 vp/cell) served as positive control for IFN-γ. Untreated cells served as negative controls in these experiments. Samples were analyzed in quadruplicate and data represented as the average value for each concentration of sMDA-7 tested.

[3] = test system: STAT-3; assay: pSTAT-3 Western blot and immunofluorescence; assay type: cell-based, human
Experimental: To determine the regulation of pSTAT-3 expression following the addition of sMDA-7, Western blot analysis was performed as described previously (Wang et al., 2002). Briefly, cells were harvested by trypsinization and resuspended in lysis buffer (62.5 mM Tris-HCl, 2% SDS, 10% glycerol, 4 M urea). Protein samples (50 μg) were each diluted into a 20 μl solution of lysis buffer and 5% 2-mercaptoethanol (Bio-Rad Laboratories, Hercules, Calif.) and heated in a water bath at 95° C. for 5 min. Protein extracts were then separated by 10% SDS-PAGE in a vertical-slab gel electrophoresis cell (Bio-Rad). The separated proteins were transferred from gel to nitrocellulose membrane (Hybond-ECL; Amersham Pharmacia Biotech, Buckinghamshire, England) and then blocked in a blocking solution (5% dry milk and 0.3% Tween 20 in PBS) for 1 hour. Membranes were incubated with the primary antibodies against pSTAT-3 (1:1000), and β-actin (1:10000). The membranes were then incubated with horseradish peroxidase-labeled secondary antibodies (Amersham). Finally, the proteins were visualized on enhanced chemiluminescence film (Hyperfilm, Amersham) by application of Amersham's Enhanced Chemiluminescence Western blotting detection system.
Activation of STAT-3 was also determined by immunofluorescence assay. HUVEC seeded in two-well chamber slides (1×10^4 cells/well) was treated with sMDA-7 (10 ng/ml) for 4 h, washed in PBS, fixed in cold acetic acid and stained for phosphorylated STAT-3 (pSTAT-3) using rabbit anti-human pSTAT-3 antibody (1:1000, Cell Signaling Technology, Beverly, Mass.) and rhodamine labeled anti-rabbit secondary antibody (1:5000; Molecular Probes, Eugene, Oreg.). Slides were mounted using anti-fade mounting reagent (Vector Laboratories). Pictures were taken 1-2 h after staining using a fluorescence microscope.

[4] = Serum sMDA-7 by ELISA; assay type: in vivo, nude mice; conditions: animals implanted with 293 cells producing MDA-7
Description: Mice were inoculated subcutaneously with A549 tumor cells in the lower right flank as described in Example 19. When the tumors had reached a size of 50 mm^3, 293 cells producing sMDA-7 (293-mda-7) or parental 293 cells (control) were encapsulated in matrigel and implanted subcutaneously at a site distant (upper right flank) from the tumor and the tumor growth was monitored. […] In comparison to the control, the growth of the tumors was suppressed by 50% after implantation of the encapsulated 293 cells producing MDA-7 protein. To confirm that the inhibitory effect was due to sMDA-7, serum samples from animals were tested for MDA-7 protein by Western blot analysis and ELISA. […] However, faint bands were also observed in the control that may be due to some cross-reactivity with serum proteins. The serum levels of sMDA-7 detected by ELISA was approximately 50 ng/ml.

[5] = test system: tumor cells; assay: Tumor cell death by secreted MDA-7 supernatant and bystander mixing; assay type: cell-based, human; conditions: supernatant from 293 cells applied to tumor cell cultures
Experimental: This hypothesis was further tested by adding secreted MDA-7 to tumor cells and monitoring cell death. […] When culture supernatants were treated to minimize Ad-mda7 contamination, negligible cell death was induced by MDA-7 containing supernatants. When supernatant from 293 cells was applied to tumor cell cultures, only low levels of cell death were seen (approximately 10-15% above background levels) confirming that the secreted MDA-7, at least at the concentrations released by these cells, was not sufficient to elicit substantial cell death in tumor cells.
In that study, H460 cells were transduced with Ad-mda7 and immunostained with anti-MDA-7 antibody in conjunction with Annexin V staining. By confocal analysis, it was observed that some cells were Annexin V positive but were negative for MDA-7 expression. The frequency of Annexin V positive/MDA-7 negative cells was low and […] in multiple cells lines. Thus, to further evaluate the contribution of secreted MDA-7 in inducing apoptosis in neighboring cells, a series of bystander experiments were performed. Ad-mda7 transduced cells were mixed with native cells that had been previously labled with Ad-GFP and the cultures were scored for apoptosis in the GFP positive cells.

[6] = test system: HUVEC and HMVEC cells; assay: Endothelial cell differentiation (tube formation) assay; assay type: cell-based, human
Experimental: Endothelial cell differentiation (tube formation) assays were done using an in vitro angiogenesis assay kit (Chemicon, Temecula, Calif.). Briefly, HUVEC and HMVEC cells were grown to 80% confluency, collected, resuspended in growth medium and plated at a concentration of 2×10^4 cells/well in a 96-well plate coated with matrigel (Chemicon, Temecula, Calif.). To the wells, varying concentrations of MDA-7 protein were added and incubated for 24 h at 37° C. Wells that were not treated with MDA-7 protein served as a negative control. The ability of sMDA-7 to inhibit tube formation was determined and quantitated by counting the number of tubes under bright field microscopy. All samples were tested in duplicate. For comparative studies using MDA-7 and endostatin (Calbiochem), cells were plated as described above and exposed to varying concentration of the proteins. […] All other experimental procedures were the same as described above.

[7] = test system: HUVEC cells; assay: Endothelial cell migration assay; assay type: cell-based, human; conditions: VEGF 100 ng/ml
Experimental: Migration assays were performed using HUVEC cells. Cells were starved overnight in basal medium containing 0.5% fetal bovine serum (FBS), collected and re-suspended in the same medium and seeded at a concentration of 1×10^5 cells/well in the upper surface of a 24-well transwell insert with a filter size of 8 μm (Millipore, Cambridge, Mass.). The insert was placed in a 6-well plate that contained medium plus VEGF (100 ng/ml) or VEGF plus MDA-7 (10 ng/ml). The plates containing the transwell were incubated at 37° C. overnight to allow migration. The following day, the wells were disassembled, membranes fixed in crystal violet and the number of cells that had migrated to the lower wells were counted under high power magnification (×40).

[8] = test system: human PBMC; conditions: cited from earlier work

B1: sMDA-7: secreted, glycosylated MDA-7 protein purified from supernatant of 293-mda-7 cells (protein)
chain: AQGQEFHFGPCQVKGVVPQKLWEAFWAVKDTMQAQDNITSARLLQQEVLQNVSDAESCYLVHTLLEFYLKTVFKNYHNRTVEVRTLKSFSTLANNFVLIVSQLQPSQENEMFSIRDSAHRRFLLFRRAFKQLDVEAALTKALGEVDILLTWMQKFYKL
hemoglobin content in the matrigel ([1]; day 10, vs no bFGF, only bFGF, or endostatin): very significant (p=0.0001) inhibitory effect; also recorded: significant reduction in hemoglobin content | bFGF-induced angiogenesis in matrigel ([1]; sMDA-7 10 ng, 10 days after implantation): inhibition of bFGF-induced angiogenesis | IFN-γ induction [2]: IP-10 but not IFN-γ was induced | amount of IP-10 produced ([2]; various time points): 15 to 32 pg/mL | pSTAT-3 protein expression ([3]; HUVEC and HMVEC, Western blot): significant increase in the phosphorylated form of STAT-3 (pSTAT-3) protein expression as early as 4 h | nuclear localization of pSTAT-3 ([3]; HUVEC, immunofluorescence): increased nuclear localization of pSTAT-3 protein | time of maximal pSTAT-3 expression ([3]; after treatment): 24 h | serum levels of sMDA-7 detected by ELISA [4]: approximately 50 ng/ml | cell death above background levels [5]: 10-15% | concentration giving complete abrogation of tubular formation ([6]; HUVEC and HMVEC): 10 ng/mL | inhibition of endothelial tube formation ([6]; HUVEC and HMVEC, 24 h): significant inhibition of endothelial tube formation | tubular formation in the presence of IL-10R neutralizing antibody ([6]; HUVEC, antibody 5 ng, sMDA-7 5 ng): able to inhibit tubular formation | tube formation ([6]; HUVEC, sMDA-7 5 ng): complete inhibition of tube formation | amount giving complete inhibition of migration ([7]; MDA-7): 50 ng | endothelial cell migration induced by VEGF ([7]; sMDA-7 10 ng/ml): blocked endothelial cell migration | cytokine induction [8]: causes the induction of IFN-γ, IL-6 and TNF-α
